These results are taken from article PMC10043284.

The target in the test is PANX2EM (residues 1-372 of human pannexin 2 with a C-terminal thermostabilized BRIL) (UniProt Q96RD6). Briefly: cryo-EM structure; purified PANX2EM (~6 mg/ml) in 20 mM Tris pH 8.0, 150 mM NaCl, 40 uM GDN, with 1 mM Fluorinated Fos-Choline 8; single-particle analysis, C7 symmetry, 3.92 Å; C1 reconstruction aligned with it.

As a reminder, the stoichiometry N is a count of units in the complex or per binding partner. For “PANX2EM (residues 1-372 of human pannexin 2 with a C-terminal thermostabilized BRIL) (from UniProt Q96RD6-3 1-372)”, the stoichiometry N was determined as 7.
